Where a chain is given by its changes, count along the chain named. Numbers in names are those of the source.
T1: PFPQPQLPY peptide
T1 chain: PFPQPQLPY

T2: PFPQPQQPF peptide
T2 chain: PFPQPQQPF

B1: Kuma011-I463Q (protein)
chain: AAPTAYTPLDVAQAYQFPEGLDGQGQCIAIIELGGGYDEASLAQYFASLGVPAPQVVSVSVDGASNQPTGDPKGPDGEVELDIEVAGALAPGAKFAVYFAPDTTAGFLDAITTAIHDPTLKPSVVSISWSGPEDSWTSAAIAAMNRAFLDAAALGVTVLAAAGDSGSTGGEQDGLYHVHFPAASPYVLACGGTRLVASGGRIAQETVWNDGPDGGATGGGVSRIFPLPAWQEHANVPPSANPGASSGRGVPDLAGNADPATGYEVVIDGEATVQGGTSAVAPLFAALVARINQKLGKAVGYLNPTLYQLPADVFHDITEGNNDIANRAQIYQAGPGWDPCTGLGSPIGVRLLQALLPSASQPQ
B2: Kuma011-I463T (protein)
chain: B1 chain with Q274T
B3: Kuma011-S354E (protein)
chain: B1 chain with S165E, Q274I
B4: Kuma010/011 E221Q (protein)
chain: B1 chain with E32Q, Q274I
B5: Kuma011-D402S (protein)
chain: B1 chain with D213S, Q274I
B6: Kuma011-I463R (protein)
chain: B1 chain with Q274R
B7: Kuma011-K262E (protein)
chain: B1 chain with K73E, Q274I
B8: Kuma011-L270V (protein)
chain: B1 chain with L81V, Q274I
B9: Kuma011-S354R (protein)
chain: B1 chain with S165R, Q274I
B10: Kuma011-I463V (protein)
chain: B1 chain with Q274V
B11: Kuma011-S354A (protein)
chain: B1 chain with S165A, Q274I
B12: Kuma011-H368F (protein)
chain: B1 chain with H179F, Q274I
B13: Kuma011-V268T (protein)
chain: B1 chain with V79T, Q274I
B14: Kuma011-V268A (protein)
chain: B1 chain with V79A, Q274I
B15: Kuma011-D399Q (protein)
chain: B1 chain with D210Q, Q274I
B16: Kuma011-G358Q (protein)
chain: B1 chain with G169Q, Q274I
B17: Kuma011-G358S (protein)
chain: B1 chain with G169S, Q274I
B18: Kuma010/011 E221H (protein)
chain: B1 chain with E32H, Q274I
B19: Kuma011-E269T (protein)
chain: B1 chain with E80T, Q274I
B20: Kuma011-G358T (protein)
chain: B1 chain with G169T, Q274I
B21: Kuma011-G358N (protein)
chain: B1 chain with G169N, Q274I
B22: Kuma011-L270A (protein)
chain: B1 chain with L81A, Q274I
B23: Kuma010/011 S319A (protein)
chain: B1 chain with S130A, Q274I
B24: Kuma010/011 E221N (protein)
chain: B1 chain with E32N, Q274I
B25: Kuma011-V268S (protein)
chain: B1 chain with V79S, Q274I
B26: Kuma011-E269L (protein)
chain: B1 chain with E80L, Q274I
B27: Kuma011-L270T (protein)
chain: B1 chain with L81T, Q274I
B28: Kuma011-S354Q (protein)
chain: B1 chain with S165Q, Q274I
B29: Kuma011-S354Y (protein)
chain: B1 chain with S165Y, Q274I
B30: Kuma010/011 E221D (protein)
chain: B1 chain with E32D, Q274I
B31: Kuma011-H368Q (protein)
chain: B1 chain with H179Q, Q274I
B32: Kuma011-N424K (protein)
chain: B1 chain with N235K, Q274I

Key:
PFPQPQLPY peptide = biological target: T1, PFPQPQLPY peptide
PFPQPQQPF peptide = biological target: T2, PFPQPQQPF peptide

Protein	% Improvement on PFPQPQLPY (SEQ ID NO: 67) (PFPQPQLPY peptide) [%]	% Improvement on PFPQPQQPF (SEQ ID NO: 68) (PFPQPQQPF peptide) [%]
B1	129	69
B2	130	239
B3	124	120
B4	105	
B5	94	108
B6	29	110
B7	109	110
B8	474	61
B9	109	82
B10	256	141
B11	152	140
B12	334	104
B13	127	105
B14	107	89
B15	149	208
B16	147	149

Protein	% Improvement on PFPQPQLPY (SEQ ID NO: 67) (PFPQPQLPY peptide) [%]	% Improvement on PFPQPQQPF (SEQ ID NO: 68) (PFPQPQQPF peptide) [%]
B17	331	224
B18	105	
B19	263	191
B20	283	128
B21	120	99
B22	203	92
B23	154	184
B24	105	
B25	104	83
B26	113	84
B27	307	29
B28	145	141
B29	46	105
B30	105	
B31	199	195
B32	285	

— US20180142226
